One molecule from patent US20250188176A1 (INVETX, published 2025) can be followed below.

Test [1] concerns the target T1, Extracellular domain (ECD) of the canine IL-4 receptor alpha-AviTag-His Tag (canine).
T1 construct: expressed in CHO cells; also called canine IL-4RA; canine IL4Ra
T1 chain: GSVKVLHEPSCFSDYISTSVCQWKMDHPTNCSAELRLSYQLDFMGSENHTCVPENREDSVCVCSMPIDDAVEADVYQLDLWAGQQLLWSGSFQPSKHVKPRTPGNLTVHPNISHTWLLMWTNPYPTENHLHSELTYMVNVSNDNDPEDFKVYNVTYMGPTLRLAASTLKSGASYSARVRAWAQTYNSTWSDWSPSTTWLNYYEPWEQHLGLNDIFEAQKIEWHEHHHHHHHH
The test is described as follows: SPR, IgG captured via anti-dog Fc.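 Also: biacore T200 SPR with antibodies captured on CM5 chip bearing anti-dog Fc, 120 s association then 600 s dissociation, double-referenced sensorgrams fitted with 1:1 binding model.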
Description: Both the heavy and light chain variants were evaluated for their binding kinetics to canine IL-4RA using SPR on a Biacore T200. The antibodies were captured using a CM5 Series S chip amine coupled with an anti-dog Fc antibody (Jackson Immunoresearch). […] The length of the association time was 120 s and the dissociation time was run for 600 s. The chip surface was regenerated with 10 mM glycine. Double reference-subtracted sensorgrams were fitted to a 1:1 binding model using Biacore T200 Evaluation software.
Six different combinations of heavy and light chain variants (Table 30) were co-transfected and produced as described above. The binding kinetics of the heavy and light chain variants to canine IL-4RA was determined using the SPR methods described above.

The target of test [2] is canine IL-4RA on canine DH82 cells (canine). The test is described as follows: cell-based or functional assay.
The target is the same in test [3]. Nature of the test: cell-based or functional assay. The source holds these as a separate data set.

B1: GFmix_PTH-H + GFmix_THS-L (antibody, V domains shown)
VH: EVQLVESGGDLVKPGGSLRLSCVASGFPFRDYAMTWVRQAPGKGLQWLSLISGSGGKTYYADAVKGRFTISRDNAKNTLYLQMNSLRAEDTAVYYCAVDRLTKTIRPQYYGLWHWGQGTLVTVSS
VL: DIVMTQTPLSLSVSPGETASISCRSSQSLTYSIGYNYLDWYMQKPGQSPQGLIYLGSKRASGVSDRFSGSGSGADFTLKISRVEADDAGVYYCMQGLHSPLGFGQGTKLEIKR
In test [1], B1 showed an equilibrium dissociation constant (Kd) of 0.171 nM, a koff of 7.78e-05 s⁻¹ and an on-rate (kon) of 458000 M⁻¹ s⁻¹. The “IC50: % inhibition of STAT6 phosphorylation (AlphaLISA pSTAT6) in canine DH82 cells stimulated with 20 ng/mL canine IL-4” value in test [2] amounted to 1.03 nM. Besides, in test [3], the “IC50: % inhibition of STAT6 phosphorylation (AlphaLISA pSTAT6) in canine DH82 cells stimulated with 50 ng/mL canine IL-13” value worked out at 0.21 nM.
